± gives the standard deviation of the averaged measurements.
test system: Saccharomyces cerevisiae; assay: protein stability index of tFT-peptide fusion (C-terminal peptide) (PSI (0-1 scale)); higher = more stable (slower turnover); conditions: genetic background: doa10 deletion; temperature: 30 C
Experimental: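 MPS profiling in S. cerevisiae of the tFT-X12 degron library: putative degron peptides plus stable controls, 12 aa, fused to the C-terminus of a sfGFP-mCherry timer. Cells are FACS-sorted into 8 mCherry/sfGFP bins and deep-sequenced. PSI runs from 0 (unstable) to 1 (stable). Backgrounds are wild type, das1Δ and doa10Δ at 30 °C, and wild type, das1Δ, cdc34-1 and cdc53-1 at 37 °C; 2-3 technical replicates each.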
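Also: PSI is a weighted mean of sequencing reads over stability bins, variants kept only with over 10 reads, mCherry proximal and sfGFP distal, peptide attached via GGGS linker.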

Sequence | protein stability index
PTLPASLHSIYP | 0.687 ± 0.03
PTYSCSIKIQAH | 0.339 ± 0.01
PWGSHLYYVVCI | 0.183 ± 0.013
PWWDALLRARVC | 0.103 ± 0.013
PYVHPFRCYWVL | 0.128 ± 0.01
QCSPGLPHAQGL | 0.657 ± 0.028
QGPHISQYRTHR | 0.676 ± 0.0068
QHRAIKIEIKIN | 0.0613 ± 0.035
QVLISLYVHGYF | 0.388 ± 0.011
RCCWWNAQAVWR | 0.655 ± 0.016
RCLHTSVFLIFP | 0.652 ± 0.026
RDASLLFHFFVC | 0.0833 ± 0.018
REGDLLKFKMRP | 0.637 ± 0.037
RFFVRRVRVAVL | 0.386 ± 0.025
RFICMMYLVYLC | 0.0601 ± 0.035
RFLPYLPTPLSP | 0.502 ± 0.016
RGAVLLPSLWVV | 0.356 ± 0.033
RGCLVHSGFFIV | 0.212 ± 0.0034
RGGVLYVSIRCK | 0.186 ± 0.015
RIHRRLIKNKRV | 0.155 ± 0.028
RIVSGVVLLVFV | 0.206 ± 0.015
RKGQNKKRNKIY | 0.203 ± 0.028
RKWLFFRSWRYV | 0.0555 ± 0.024
RLFIIYLLNIQG | 0.263 ± 0.0062
RLFSPPVLATPS | 0.51908 ± 0.00034
RLIAVAGVVVVA | 0.3997 ± 0.00095

Sequence | protein stability index
RLLSIFKILHVG | 0.0881 ± 0.028
RLRHPPRLSTLC | 0.306 ± 0.018
RLSTPFTVNHFI | 0.155 ± 0.04
RLVPFMAVRVLF | 0.413 ± 0.025
RRVRVVCVIVAA | 0.189 ± 0.0071
RSFNVGLELLVW | 0.259 ± 0.0039
RTWFTYMSIPVW | 0.189 ± 0.023
RVFGWIEVEVEG | 0.346 ± 0.018
RVFRLDRRLQVV | 0.128 ± 0.012
RVGSSLIVVYCV | 0.207 ± 0.0045
RVLCLVSSLTLF | 0.352 ± 0.0058
RWTKMNNLIIEF | 0.678 ± 0.012
RWVFAGVGLFVG | 0.353 ± 0.043
SCFDRQIFVPVC | 0.274 ± 0.0059
SDLQVMKLRSVC | 0.185 ± 0.007
SFFYFVFYYLSF | 0.253 ± 0.016
SFIFFVSCFFIF | 0.263 ± 0.0092
SFLRVRSLISCS | 0.168 ± 0.0032
SFSRLWSLFRCL | 0.15 ± 0.0057
SFVCFSYYIVNI | 0.381 ± 0.023
SFVLLSSFLVFV | 0.275 ± 0.0036
SGFLNVGYLWVC | 0.149 ± 0.012
SIFLCRLQNLLI | 0.19 ± 0.017
SILVSIFILAMQ | 0.199 ± 0.008
SIRVIVAVRNIS | 0.21 ± 0.015
SISVQCSMLRVL | 0.303 ± 0.02

Sequence | protein stability index
SLARLRRICFNT | 0.254 ± 0.011
SLRPFFPPLPRP | 0.723 ± 0.026
SLVPSIFLFRIF | 0.323 ± 0.0096
SLVVMGSLWLRI | 0.468 ± 0.052
SMGVLITYLVQV | 0.25 ± 0.007
SMPWFWFVRGIG | 0.438 ± 0.032
SNFDVRRLLVIQ | 0.29 ± 0.0061
SPSTPQALSNFS | 0.664 ± 0.022
SPTIFLPLFLTS | 0.621 ± 0.016
SRARIRLPRILS | 0.208 ± 0.0047
SSLTFTFAILLY | 0.369 ± 0.018
STLPACNCLKLL | 0.332 ± 0.015
STNMDNRIRTLA | 0.311 ± 0.0059
SVIVSSFFLWVF | 0.2026 ± 0.00069
SVLVWFLVFLVW | 0.218 ± 0.019
SVVYCRMRVHFV | 0.263 ± 0.01
SWGEQDRLTGYI | 0.669 ± 0.018
SWMFKLCIQWNV | 0.467 ± 0.029
SWSLRLSTIFSV | 0.189 ± 0.0053
SYFASLLDLFTA | 0.669 ± 0.018
TDSSWEVSLMVG | 0.605 ± 0.023
TDVLLLQLLISV | 0.184 ± 0.007
TGPLVHLLCCCV | 0.284 ± 0.0075
TKKGQTRPSRTD | 0.6444 ± 0.0049
TLKRCFRWCRTT | 0.105 ± 0.0068
TLSRTPVSPSAP | 0.674 ± 0.032

Reference: the supplement of paper PMC10724198
